# Assay results: publication PMC8692152, “Cellular Id1 inhibits hepatitis B virus transcription by interacting with the novel covalently closed circular DNA-binding protein E2F4” (International Journal of Biological Sciences, 2022)
# Molecular target: the molecule itself
# Test: SEC; Superdex 75, 50 mM Tris-HCl pH 8.0, 300 mM NaCl; calibrated with molecular mass standards
# E2F4_(1-88), sequence (Q16254 1-88): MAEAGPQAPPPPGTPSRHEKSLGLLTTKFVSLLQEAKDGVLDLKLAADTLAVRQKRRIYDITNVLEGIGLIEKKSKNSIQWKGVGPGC
protein,measurement,value
"E2F4_(1-88) (domain or fragment, The section on ITC sample preparation describes an E2F4_(1-88) protein purified on a GST column and cut with 3C protease; also called pET28-E2F4_(1-88)) not shown",stoichiometry N,2
